Laboratory results reported in publication PMC11599015.

Target: recombinant circular RABV N10-RNA complex purified from insect cells (phosphorylated) (rabies virus (RABV)) (UniProt Q8JXF6)
Experiment: SPR

Sequence of recombinant circular RABV N10-RNA complex purified from insect cells (phosphorylated) (rabies virus (RABV)) (Q8JXF6 whole entry, one chain of several): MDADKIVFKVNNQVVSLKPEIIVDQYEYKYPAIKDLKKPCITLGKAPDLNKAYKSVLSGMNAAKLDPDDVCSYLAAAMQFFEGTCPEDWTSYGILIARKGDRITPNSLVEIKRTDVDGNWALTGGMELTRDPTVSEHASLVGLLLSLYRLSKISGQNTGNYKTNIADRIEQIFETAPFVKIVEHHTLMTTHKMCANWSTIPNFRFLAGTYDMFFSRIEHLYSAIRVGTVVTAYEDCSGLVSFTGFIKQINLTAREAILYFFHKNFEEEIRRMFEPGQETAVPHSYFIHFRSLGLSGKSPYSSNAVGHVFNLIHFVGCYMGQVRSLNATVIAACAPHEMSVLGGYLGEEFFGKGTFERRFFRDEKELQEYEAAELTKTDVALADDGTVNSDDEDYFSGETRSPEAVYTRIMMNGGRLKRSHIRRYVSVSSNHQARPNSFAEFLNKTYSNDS

“RABV phosphoprotein P deleted of residues 90-133 (dimerization domain) (domain or fragment)” showed a Kd of 0.08 µM and a stoichiometry N of 1.7.
